Patent publication US10208288B2, “Differentiation of human embryonic stem cells into pancreatic endocrine cells” (Janssen Biotech, Inc., priority 2012, dated 2019)

Test system: cells of the human embryonic stem cell line H1 differentiated to stage 5
Assay: Real-time PCR of pancreatic endoderm/endocrine genes after factors spiked into stage 5 media
Format: cell-based
Protocol: Cells of the human embryonic stem cell line H1 (hESC H1, passage 40) were seeded as single cells at 1×10^5 cells/cm^2 on MATRIGEL™ (1:30 dilution; BD Biosciences, NJ)-coated dishes in mTeSR®1 media (StemCell Technologies, Vancouver, Canada) supplemented with 10 μM of Y27632 (Rock inhibitor, Catalog No. Y0503, SigmaAldrich, St. Louis, Mo.). Forty-eight hours post seeding, cultures were washed in incomplete PBS (phosphate buffered saline without Mg or Ca). Cultures were differentiated into pancreatic endoderm/endocrine lineages as follows: • a) Stage 1 (Definitive Endoderm (DE)—3 days): Cells were cultured for one day in stage 1 media: MCDB-131 medium (Catalog No. 10372-019, Invitrogen, Carlsbad, Calif.) supplemented with 0.1% fatty acid-free BSA (Catalog No. 68700, Proliant, Ankeny, Iowa), 0.0012 g/ml sodium bicarbonate (Catalog No. S3187, SigmaAldrich, St. Louis, Mo.), 1× GlutaMax™ (Invitrogen Catalog No. 35050-079), 4.5 mM D-Glucose (SigmaAldrich Catalog No. G8769), 100 ng/ml GDF8 (R&D Systems, Minneapolis, Minn.) and 1 μM MCX compound (a GSK3B inhibitor, 14-Prop-2-en-1-yl-3,5,7,14,17,23,27-heptaazatetracyclo [19.3.1.1˜2,6˜0.1˜8,12˜]heptacosa-1(25),2(27),3,5,8(26),9,11,21,23-nonaen-16-one, US Patent Application Publication No. 2010-0015711; incorporated herein by reference in its entirety). Cells were then cultured for additional day in MCDB-131 medium supplemented with 0.1% fatty acid-free BSA, 0.0012 g/ml sodium bicarbonate, 1× GlutaMax™, 4.5 mM D-Glucose, 100 ng/ml GDF8, and 0.1 μM MCX compound. Cells were then cultured for an additional day in MCDB-131 medium supplemented with 0.1% fatty acid-free BSA, 0.0012 g/ml sodium bicarbonate, 1× GlutaMax™, 4.5 mM D-Glucose, and 100 ng/ml GDF8, then • b) Stage 2 (Primitive gut tube—2 days): Cells were treated for two days with MCDB-131 medium supplemented with 0.1% fatty acid-free BSA; 0.0012 g/ml sodium bicarbonate; 1× GlutaMax™; 4.5 mM D-Glucose; 0.25 mM ascorbic acid (Sigma, St. Louis, Mo.) and 25 ng/ml FGF7 (R & D Systems, Minneapolis, Minn.), then • c) Stage 3 (Foregut—2 days): Cells were treated with MCDB-131 medium supplemented with a 1:200 dilution of ITS-X (Invitrogen); 4.5 mM Glucose; 1× GlutaMax™; 0.0017 g/ml sodium bicarbonate; 2% fatty acid-free BSA; 0.25 μM SANT-1 (Sigma, St. Louis, Mo.); 10 ng/ml of Activin-A (R & D Systems); 1 μM retinoic acid (RA; Sigma); 25 ng/ml FGF7; 0.25 mM ascorbic acid; 200 nM TPB (a PKC activator; Catalog No. 565740; EMD Chemicals, Gibstown, N.J.); 10 μM forskolin (FSK, Sigma), and 100 nM LDN (a BMP receptor inhibitor; Catalog No. 04-0019; Stemgent; San Diego, Calif.) for day 1. On day 2, cells were treated with MCDB-131 medium supplemented with a 1:200 dilution of ITS-X; 4.5 mM Glucose; 1× GlutaMax™; 0.0017 g/ml sodium bicarbonate; 2% fatty acid-free BSA; 0.25 μM SANT-1; 10 ng/ml of Activin A; 1 μM RA; 25 ng/ml FGF7; 0.25 mM ascorbic acid, 200 nM TPB, 10 μM forskolin and 10 nM LDN, then • d) Stage 4 (Pancreatic foregut precursor—2 days); Cells were treated with MCDB-131 medium supplemented with a 1:200 dilution of ITS-X; 4.5 mM Glucose; 1× GlutaMax™; 0.0015 g/ml sodium bicarbonate; 2% fatty acid-free BSA; 0.25 μM SANT-1; 50 nM RA; 50 nM LDN-193189; 10 μM forskolin; 0.25 mM ascorbic acid; and 100 nM TPB for two days, then • e) Stage 5 (Pancreatic endoderm/endocrine—3 days): Stage 4 cells were treated with MCDB-131 medium supplemented with a 1:200 dilution of ITS-X; 20 mM Glucose; 1× GlutaMax™; 0.0015 g/ml sodium bicarbonate; 2% fatty acid-free BSA; 0.25 μM SANT-1; 50 nM RA; 10 μM forskolin; 0.25 mM ascorbic acid for three days, with the addition of 100 nM ALk5 inhibitor SD-208 (disclosed in Molecular Pharmacology 2007, 72:152-161) for days 2-3 only.
At day 1 of stage 5, the factors listed in Table I, below, were spiked into the media and upon completion of S5 (day 3 of stage 5) mRNA was collected for PCR analysis of relevant pancreatic endoderm/endocrine genes. As a control, cultures were treated only with the S5 media listed above. […]

B1: Ephrin-A4: Ephrin ligand protein, R & D Systems catalogue number 369-EA (protein, UniProt P52798 26-170, looked up)
Ephrin-A4: LRHVVYWNSSNPRLLRGDAVVELGLNDYLDIVCPHYEGPGPPEGPETFALYMVDWPGYESCQAEGPRAYKRWVCSLPFGHVQFSEKIQRFTPFSLGFEFLPGETYYYISVPTPESSGQCLRLQVSVCCKERKSESAHPVGSPGES
How did the PDX1 expression (Ephrin-A4 100 ng/ml at S5, mRNA at day 3 of S5, vs control, FIG. 1E) turn out when B1 was run?
Its PDX1 expression is “minimal impact”.

What about the NGN3 expression (Ephrin-A4 100 ng/ml at S5, mRNA at day 3 of S5, vs control, FIG. 1G) of the same molecule?
Its NGN3 expression is “minimal impact”.

And the “mRNA expression of insulin” value (factor spiked at day 1 of stage 5, mRNA at day 3 of S5, vs control cultures, Table I: Ephrin-A4 100 ng/ml, Activin A and Activin C 20 ng/ml, FIG. 1A)?
Its value is “enhanced”.

What about the “mRNA expression of NKX6.1” value (factor spiked at day 1 of stage 5, mRNA at day 3 of S5, vs control cultures, Table I: Ephrin-A4 100 ng/ml, Semaphorin 3a 50 ng/ml, Epigen 20 ng/ml, FIG. 1F) of the same molecule?
The value was “enhanced”.
